Paper PMC4005645, “Molecular basis for the wide range of affinity found in Csr/Rsm protein–RNA recognition”

Columns and labels:
RsmE [1] = target: T1, RsmE (Pseudomonas fluorescens CHA0, UniProt P0DPC3 1-64); experiment: NMR structure; slow exchange; ITC: 300 mM NaCl, 50 mM potassium phosphate pH 8.0, 298 K; NMR: 30 mM NaCl, 50 mM potassium phosphate pH 7.2, 313 K; settings: protein: recombinant; tags: C-terminal His tag; chain copies: 2; hairpin
T1 sequence: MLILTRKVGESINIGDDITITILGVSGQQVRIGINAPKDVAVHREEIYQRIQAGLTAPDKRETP

RsmE [2] = target: T1, RsmE; experiment: ITC; first RNA on dimer, two-site fit; ITC: 300 mM NaCl, 50 mM potassium phosphate pH 8.0, 298 K; NMR: 30 mM NaCl, 50 mM potassium phosphate pH 7.2, 313 K; settings: protein: recombinant; tags: C-terminal His tag; chain copies: 2; hairpin
RsmE [3] = target: T1, RsmE; experiment: ITC; second RNA on dimer, two-site fit; ITC: 300 mM NaCl, 50 mM potassium phosphate pH 8.0, 298 K; NMR: 30 mM NaCl, 50 mM potassium phosphate pH 7.2, 313 K; settings: protein: recombinant; tags: C-terminal His tag; chain copies: 2; hairpin
RsmE [4] = target: T1, RsmE; experiment: ITC; intermediate affinity; value in figure; ITC: 300 mM NaCl, 50 mM potassium phosphate pH 8.0, 298 K; NMR: 30 mM NaCl, 50 mM potassium phosphate pH 7.2, 313 K; settings: protein: recombinant; tags: C-terminal His tag; chain copies: 2
RsmE [5] = target: T1, RsmE; experiment: ITC; two-site fit, high affinity, similar to SL2; values in figure; ITC: 300 mM NaCl, 50 mM potassium phosphate pH 8.0, 298 K; NMR: 30 mM NaCl, 50 mM potassium phosphate pH 7.2, 313 K; settings: protein: recombinant; tags: C-terminal His tag; chain copies: 2; hairpin

GGGAUCGCAGGAAGCGAUCCC (structured_RNA) [RsmZ SL3]
binding result (RsmE [1]): binds

GGGCCAUCAAGGACGAUGGUCC (structured_RNA) [RsmZ SL2]
Kd (RsmE [2]): 16 ± 3 nM
Kd (RsmE [3]): 185 ± 3 nM

GAGCAUGGACGGCGAGACGCCGGGUA (structured_RNA) [hcnA-GGA#3]
binding result (RsmE [4]): binds

GGGUGUCGACGGAUAGACACCC (structured_RNA) [RsmZ SL1]
binding result (RsmE [1]): binds

GGGUCAUCAGGACGAUGACCC (structured_RNA) [RsmZ SL4]
binding result (RsmE [1]): binds

GGGCUUCACGGAUGAAGCCC (structured_RNA) [20nt-RBS (hcnA GGA#5)]
binding result (RsmE [5]): binds
